Reference: US8153410B2, “Alternate morpheein forms of allosteric proteins as a target for the development of bioactive molecules” (Fox Chase Cancer Center, priority 2003, dated 2012)
Where two headings read alike, the source gives them in different places. Marks after values point to notes of the source that are not given here.

Key:
pea PBGS = biological target: T1, pea PBGS (Pisum sativum, UniProt P30124); details: read-out: Kd for the allosteric magnesium of pea PBGS; cited from earlier work
T1 sequence (P30124 69-398 limits assumed): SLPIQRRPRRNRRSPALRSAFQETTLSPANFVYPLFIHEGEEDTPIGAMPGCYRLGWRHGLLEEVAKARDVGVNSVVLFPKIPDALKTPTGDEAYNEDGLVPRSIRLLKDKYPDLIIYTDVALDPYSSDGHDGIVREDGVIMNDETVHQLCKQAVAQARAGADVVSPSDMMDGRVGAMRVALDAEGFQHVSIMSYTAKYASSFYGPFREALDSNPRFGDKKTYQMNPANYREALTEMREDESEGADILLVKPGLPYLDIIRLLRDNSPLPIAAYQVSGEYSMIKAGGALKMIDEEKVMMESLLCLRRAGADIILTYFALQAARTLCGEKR

human PBGS [1] = assay: kinetic characterization (Km, Vmax, specific activity) of human PBGS variants with substrate ALA; type: biochemical
Procedure: (§1) All kinetic determinations were carried out in 0.1 M bis-tris propane, 10 mM 2-mercaptoethanol, 10 μM Zn. For the pH rate profiles, the reported pH reflects the assay pH after the addition of 10 mM ALA-HCl. For Km and Vmax determinations, concentrations of ALA were 10 μM, 30 μM, 100 μM, 300 μM, 1 mM, 3 mM, and 10 mM and were each done in duplicate. […] All assays were at 37° C. for a fixed time using Ehrlich's reagent to determine porphobilinogen formed.
(§2) The kinetic parameters Km and Vmax of the S300 purified pools were determined at pH 7 and at pH 9 (Table 3 contains data for hetero-hexamers (Pool I) initially at 70% Leu and 30% Phe and for hetero-octamers (Pool II) initially at 30% Leu and 70% Phe). […] With the exception of the trace amount of octamer present for Pool I that is detected at pH 9, all the kinetic values are well determined (see Table 3). […] The factors that govern equilibration of human PBGS heteromers under assay conditions remain to be elucidated.
(§3) Km1 and Km2 (both mM) are interpreted as the Km for the octamer and hexamer, respectively.
(§4) Using freshly prepared hetero-oligomers of WT+F12L, the Pool I and Pool II proteins were separated chromatographically and then dialyzed for 24 hours at pH 7 in the presence of 10 mM ALA. Following dialysis, the re-equilibrated hetero-oligomers were again separated into their hexameric and octameric components by chromatography on a Mono-Q column. The separated proteins were characterized for their specific activity and for their Phe12 and Leu12 content. The specific activity of hexamer and octamer are dramatically different with hexamer showing optimal activity at pH 9 and the activity of octamer is maximal at pH 7 (Table 4). […] Following chromatographic separation, the proteins were called Pool I hexamer, Pool I octamer, Pool II hexamer, and Pool II octamer and are described below. The peak to elute first on the Mono-Q column runs comparably to the F12L mutant, which is the hexamer. The hexameric structure is substantiated by native gel electrophoresis and by specific activity at pH 7 and pH 9 (FIG. 26A and Table 4). The second peak to elute runs comparably to the WT human PBGS, which is the octamer. The octameric structure is substantiated by native gel electrophoresis and specific activity at pH 7 and pH 9 (FIG. 26A and Table 4). Consistent with the documented characteristics of human PBGS hexamers and octamers, Pool I hexamer and Pool II hexamer have very low activity at pH 7 and considerable activity at pH 9. Pool I octamer and Pool II octamer both show substantially higher activity at pH 7 than at pH 9.

human PBGS [2] = biological target: T2, human PBGS (Homo sapiens, UniProt P13716, C162A/K59N); assay: as above; type: biochemical; details: pH 9; Table 1; hexamer component
T2 construct: made in house; host or cells: E. coli BLR(DE3)
T2 sequence (P13716 1-330 K59N/C162A): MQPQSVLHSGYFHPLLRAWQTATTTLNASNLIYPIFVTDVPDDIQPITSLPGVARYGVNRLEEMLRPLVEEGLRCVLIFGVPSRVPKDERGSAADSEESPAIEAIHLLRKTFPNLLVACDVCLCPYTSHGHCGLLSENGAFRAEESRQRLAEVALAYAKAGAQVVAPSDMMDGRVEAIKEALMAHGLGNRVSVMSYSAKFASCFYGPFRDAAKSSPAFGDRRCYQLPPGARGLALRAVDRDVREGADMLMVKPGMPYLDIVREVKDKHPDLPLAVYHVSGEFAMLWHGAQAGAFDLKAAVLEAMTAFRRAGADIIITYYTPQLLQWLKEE
Procedure: as §1, §2, §3, §4

human PBGS [3] = assay: temperature dependence (Arrhenius plots) of hetero-hexamer to hetero-octamer conversion and of substrate turnover; type: biochemical; details: pH 7.0, 10 mM ALA-HCl
From the text: To determine the free energy of activation for the conversion of hetero-hexamers to hetero-octamers, we took advantage of the dramatic differences in the activity of octameric (high activity) and hexameric (low activity) human PBGS at pH 7.0 (3, 5). Because of this difference, the transition from purified hetero-hexamers to a mixture of hetero-hexamers and hetero-octamers under turnover conditions is accompanied by a progressive increase in the specific activity; this process was monitored at several temperatures. Starting with purified hetero-hexamers, (FIG. 34a) the specific activity increased, which is fit to a first-order exponential as exemplified in FIG. 35b (5). […] The time-courses for conversion of hetero-hexamer to hetero-octamer were monitored by periodically removing aliquots from the incubations and immediately quantifying porphobilinogen using Ehrlich's reagent and calculating specific activities based on the total incubation time. […] An activation energy for hetero-hexamer to hetero-octamer conversion (Ea=63±5 kJ/mol) was determined from the slope of the plot. […] However, we previously monitored this process at 5 μg/ml and 0.9 mg/ml, two widely different enzyme concentrations, by specific activity increase and dynamic light scattering respectively. […]

Molecule: [Mg+2] [magnesium]
- Kd (pea PBGS): 2500 µM

B1: WT: wild type human PBGS (parent N59/C162A), octameric, expressed in E. coli (protein)
chain: MQPQSVLHSGYFHPLLRAWQTATTTLNASNLIYPIFVTDVPDDIQPITSLPGVARYGVNRLEEMLRPLVEEGLRCVLIFGVPSRVPKDERGSAADSEESPAIEAIHLLRKTFPNLLVACDVCLCPYTSHGHCGLLSENGAFRAEESRQRLAEVALAYAKAGAQVVAPSDMMDGRVEAIKEALMAHGLGNRVSVMSYSAKFASCFYGPFRDAAKSSPAFGDRRCYQLPPGARGLALRAVDRDVREGADMLMVKPGMPYLDIVREVKDKHPDLPLAVYHVSGEFAMLWHGAQAGAFDLKAAVLEAMTAFRRAGADIIITYYTPQLLQWLKEE
- Specific activities before and after substrate induced disproportionation (human PBGS [1]; pH 7): 56.9 µmol/h/mg
- Km1 (human PBGS [1]; pH 7, Table 1): 0.25 ± 0.01 mM
- Vmax1 (human PBGS [1]; pH 7, Table 1): 55.5 ± 0.2
- Vmax1 (human PBGS [1]; pH 7, Table 3): 55.5 ± 0.2 µmol/h/mg
- Km (human PBGS [1]; pH 7, Table 3, read-out: Km1 (Km for the octamer)): 250 ± 10 µM
- Specific activities before and after substrate induced disproportionation (human PBGS [1]; pH 9): 13.1 µmol/h/mg
- Km1 (human PBGS [1]; pH 9, Table 1): 0.015 ± 0.001 mM
- Vmax1 (human PBGS [1]; pH 9, Table 1): 8.16 ± 0.13
- Vmax1 (human PBGS [1]; pH 9, Table 3): 8.16 ± 0.13 µmol/h/mg
- Vmax2 (human PBGS [1]; pH 9, Table 3): 6.67 ± 0.36 µmol/h/mg
- Km (human PBGS [1]; pH 9, Table 3, read-out: Km1 (Km for the octamer)): 15 µM
- Km (human PBGS [1]; pH 9, Table 3, read-out: Km2 (Km for the hexamer)): 4460 ± 800 µM
- Km2 (human PBGS [2]): 4.46 ± 0.80^a mM
- Vmax2 (human PBGS [2]): 6.67 µM/h/mg
- activation energy for substrate turnover (human PBGS [3]): 14.8 ± 0.24 kcal/mol
